Test [1] concerns the target horse serum butyrylcholinesterase (horse). As to the kind of experiment: native gel or EMSA. (A gel shift assay detects complexes by their altered migration in electrophoresis.)
For test [2] the target is unchanged. As to the kind of experiment: SDS-PAGE without reducing agent.
For test [3] the target is unchanged. As to the kind of experiment: native gel or EMSA. The source holds these as a separate data set.

From publication PMC3463765 come the findings set out here.

Values joined by “and” are separate entries in the source; they are usually repeats but may differ in a detail not shown here. Identical values can stand only once.

Take “horse serum butyrylcholinesterase (enzyme)”: the stoichiometry N (in general, the number of molecules, sites or subunits per partner or assembly) in test [1] is 4; in test [2] it was 2; in test [3] it was 2 and 4.
